In patent US20110020437A1 (APIM THERAPEUTICS, published 2011):

Target: T1, proliferating cell nuclear antigen (PCNA) (UniProt P12004 1-261)
T1 construct: Used both for endogenous PCNA of HeLa cell extracts (co-IP, cross-linking) and for the untagged 'PCNA' used as probe in the dot blot; also called endogenous PCNA
Assay: co-IP with anti-GFP antibodies from stably expressing cells, anti-PCNA western blot
Experimental: An in-house affinity purified rabbit polyclonal antibody raised against GFP protein, which also recognises EYFP and ECFP proteins, was covalently linked to protein-A paramagnetic beads (Dynal®) according to procedure from New England Biolabs® Inc (from now on called α-GFP beads). Each fraction was incubated with α-GFP beads (10 μl) during constant rotation at 4° C. over night (IP). After IP, the beads were washed 4 times with 200 μl 10 mM Tris-HCl, 50 mM KCl (pH 7.5), with 5 min incubation on ice in between. The beads were then resuspended in NuPAGE ® (Invitrogen) loading buffer and 1 mM DTT, heated, and separated on 10% or 4-12% Bis-Tris-HCl (NuPAGE®) gels and transferred to PVDF membranes (Imrnobilon®, Millipore). The membranes were blocked for 1 h in 5% low fat dry milk in PBST (PBS with 0.1% Tween® 20). The primary antibodies, α-PCNA (PC10, Santa Cruz biotechnology Inc.) and α-GFP were diluted in 1% dry milk in PBST and incubated for 1 h, followed by 1 h incubation with secondary antibodies, Polyclonal Rabbit Anti-mouse IgG/HRP and Polyclonal Swine Anti-rabbit IgG/HRP, respectively (DakoCytomation, Denmark). The membranes were treated with chemiluminescence reagent (SuperSignal® West Femto Maximum, PIERCE), and the proteins visualised in Kodak Image Station 2000R. […]

T1 sequence (P12004 whole entry): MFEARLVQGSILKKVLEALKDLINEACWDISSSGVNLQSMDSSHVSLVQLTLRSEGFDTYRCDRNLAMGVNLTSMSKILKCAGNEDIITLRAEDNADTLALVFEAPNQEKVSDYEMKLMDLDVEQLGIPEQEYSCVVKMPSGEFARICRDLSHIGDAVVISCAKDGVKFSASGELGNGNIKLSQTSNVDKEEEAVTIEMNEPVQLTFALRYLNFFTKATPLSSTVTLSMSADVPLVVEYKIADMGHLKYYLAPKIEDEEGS

binding result: no binding
B1: hABH211-261-EYFP (other, human, UniProt Q6NS38 11-261, looked up)
chain: GGLLRKQEEQEPTGEEPAVLGGDKESTRKRPRREAPGNGGHSAGPSWRHIRAEGLDCSYTVLFGKAEADEIFQELEKEVEYFTGALARVQVFGKWHSVPRKQATYGDAGLTYTFSGLTLSPKPWIPVLERIRDHVSGVTGQTFNFVLINRYKDGCDHIGEHRDDERELAPGSPIASVSFGACRDFVFRHKDSRGKSPSRRVAVVRLPLAHGSLLMMNHPTNTHWYHSLPVRKKVLAPRVNLTFRKILLTKK
notes: not shown: C-terminal EYFP tag (pEYFP-N1)
